Results on 9 molecules are retold here after patent publication US20110059015A1 (CONSEJO SUPERIOR DE INVESTIGACIONES CIENTIFICAS CSIC, published 2011).

The target in assay [1] is T1, BSA (Bos taurus, UniProt P02769).
T1 construct: commercial serum albumin; also called bovine serum albumin
The assay can be described thus: ELISA, soluble Fab on BSA coated wells. A general note: In an ELISA, binding on a coated surface is turned into a signal by an enzyme label.

Assay [2] deals with gp120 of HIV-1 MN strain (on virus) (HIV-1 (MN), UniProt P05877 32-513). Description: cell-based or functional assay.
Assay [3] addresses T1, BSA. The assay can be described thus: ELISA, soluble Fab of the shuffled HC/LC pair on BSA coated wells.
Assay [4] concerns the target T1, BSA. The assay can be described thus: ELISA, soluble mutant Fab on BSA coated wells.
For assay [5], the target named is T1, BSA. The assay can be described thus: ELISA, soluble Fab on BSA coated wells. The source holds these as a separate data set.
In assay [6] the target is gp120 of HIV-1 SF-2 strain (on virus) (HIV-1 (SF-2), UniProt P03378 32-509). Description: cell-based or functional assay.
Assay [7] deals with gp120 of HIV-1 RF strain (on virus) (HIV-1 (RF), UniProt P04579 32-519). Description: cell-based or functional assay.
In assay [8] the target is T1, BSA. The assay can be described thus: ELISA, Fab titration on BSA coated wells.
For assay [9], the target named is T1, BSA. The assay can be described thus: ELISA, soluble mutant Fab on BSA coated wells. The source holds these as a separate data set.

T1 sequence (P02769 25-607 limits assumed): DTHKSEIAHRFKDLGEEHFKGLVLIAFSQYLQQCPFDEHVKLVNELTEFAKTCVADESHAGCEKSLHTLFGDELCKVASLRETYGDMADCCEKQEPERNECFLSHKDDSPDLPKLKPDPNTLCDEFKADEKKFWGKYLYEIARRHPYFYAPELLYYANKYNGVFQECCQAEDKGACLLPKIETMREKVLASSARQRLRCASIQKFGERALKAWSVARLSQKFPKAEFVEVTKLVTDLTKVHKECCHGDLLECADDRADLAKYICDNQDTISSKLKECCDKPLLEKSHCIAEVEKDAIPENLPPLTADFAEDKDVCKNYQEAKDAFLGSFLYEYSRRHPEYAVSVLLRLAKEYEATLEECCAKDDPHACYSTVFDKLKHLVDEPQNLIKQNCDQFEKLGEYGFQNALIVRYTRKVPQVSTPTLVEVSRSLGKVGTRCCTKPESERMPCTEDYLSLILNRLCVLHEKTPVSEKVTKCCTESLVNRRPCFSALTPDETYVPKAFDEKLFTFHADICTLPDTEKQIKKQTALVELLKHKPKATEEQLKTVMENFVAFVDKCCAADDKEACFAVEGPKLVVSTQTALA

B1: Fab S20 (Fab, V domains shown)
VH: LESGGGVVQPGRSLRLSCSASGFSFRDYAMHWVRQAPGKGLEWVAFIWFDGSNERYADSVKGRFTITRDNPKNTLYLQMNSLRVEDTAVYYCVRRGGSILTGFHLDYWGQGTLVTVSS
VL: ELTQSPSSLSASVGDRVTITCRASQGIRDDLGWYQQKPGKAPKRLIYAASNLQSGVPSRFSGGGSGTEFTLTISSLQPEDFATYYCLQHNSYPLTFGGGTKVEIKR
notes: also called IgG Fab S20
For B1, the binding result with BSA [1] is “no binding (tested: not given on the sheet)”. The “% neutralisation of HIV-1 MN, NPA in MT-4 cells, at 20 µg/ml Fab” value in assay [2] is 90%.

B2: S20/S8 (Fab, V domains shown)
VH: LESGGGVVQPGRSLRLSCSASGFSFRDYAMHWVRQAPGKGLEWVAFIWFDGSNERYADSVKGRFTITRDNPKNTLYLQMNSLRVEDTAVYYCVRRGGSILTGFHLDYWGQGTLVTVSS
VL: ELTQSPSSLSASVGDRVTITCRASQGIRDDLGWYQQKPGKAPKRLIYAASNLQSGVPSRFSGGGSGTEFTLTISSLQPEDFATYYCLQHNSYPLTFGGGTKVEIKR
notes: also called S20 heavy chain paired with S8 light chain
B2: the binding result with BSA [3] was “no binding (tested: not given on the sheet)”.

B3: S2095 P (Fab, V domains shown)
VH: LESGGGVVQPGRSLRLSCSASGFSFRDYAMHWVRQAPGKGLEWVAFIWFDGSNERYADSVKGRFTITRDNPKNTLYLQMNSLRVEDTAVYYCVRPGGSILTGFHLDYWGQGTLVTVSS
VL: ELTQSPSSLSASVGDRVTITCRASQGIRDDLGWYQQKPGKAPKRLIYAASNLQSGVPSRFSGGGSGTEFTLTISSLQPEDFATYYCLQHNSYPLTFGGGTKVEIKR
For the molecule B3, the binding result with BSA [4] is listed as “no binding (tested: not given on the sheet)”.

B4: mutant Fab S2095K (Fab, V domains shown)
VH: LESGGGVVQPGRSLRLSCSASGFSFRDYAMHWVRQAPGKGLEWVAFIWFDGSNERYADSVKGRFTITRDNPKNTLYLQMNSLRVEDTAVYYCVRKGGSILTGFHLDYWGQGTLVTVSS
VL: ELTQSPSSLSASVGDRVTITCRASQGIRDDLGWYQQKPGKAPKRLIYAASNLQSGVPSRFSGGGSGTEFTLTISSLQPEDFATYYCLQHNSYPLTFGGGTKVEIKR
With B4, the binding result with BSA [4] was “no binding (tested: not given on the sheet)”.

B5: Fab S8 (Fab, V domains shown)
VH: LESGGGLVKPGGSLRLSCAASGFTFSSYAMHWVRQAPGKGLEWVAFIWFDGSNERYADSVKGRFTITRDNPKNTLYLQMNSLRVEDTAVYYCVRRGGSILTGFHLDYWGQGTLVTVSS
VL: ELTQSPSSLSASVGDRVTITCRASQGIRDDLGWYQQKPGKAPKRLIYAASNLQSGVPSRFSGGGSGTEFTLTISSLQPEDFATYYCLQHNSYPLTFGGGTKVEIKR
notes: also called IgG Fab S8; S8 Fab
On to B5, for which the binding result in the assay with BSA [5] is on record as “no binding (tested: not given on the sheet)”. Further, in assay [6], the “% neutralisation, IRA in MT-2 cells, at 1 µg/ml Fab S8” value (“% neutralisation … at 1 µg/ml Fab S8” for short) is 50% and the “% neutralisation, IRA in MT-2 cells, at 10 µg/ml Fab S8” value (“% neutralisation … at 10 µg/ml Fab S8” for short) is greater than 90%. Besides, in [2], the “% neutralisation of HIV-1 MN, NPA in MT-4 cells, at 20 µg/ml Fab” value is 90%; the “% neutralisation … at 1 µg/ml Fab S8” value was 50%; the “% neutralisation … at 10 µg/ml Fab S8” value is greater than 90%. Further, in [7], the “% neutralisation … at 1 µg/ml Fab S8” value amounted to 50% and the “% neutralisation … at 10 µg/ml Fab S8” value is greater than 90%.

B6: Fab S19 (Fab, V domains shown)
VH: LESGGGVVQPGRSLRLSCAASGFSFSSHGMHWVRQAPGKGLEWVAFIWFDGSNERYADSVKGRFTITRDNPKNTLYLQMNSLRVEDTAVYYCVRRGGSILTGFHLDYWGQGTLVTVSS
VL: ELTQSPSSLSASVGDRVTITCRASQGIRDDLGWYQQKPGKAPKRLIYAASNLQSGVPSRFSGGGSGTEFTLTISSLQPEDFATYYCLQHNSYPLTFGGGTKVEIKR
notes: also called IgG Fab S19
Turning to B6, in the assay with BSA [8], the binding result was “no binding (tested: about 10 µg/ml)”.

B7: mutant Fab S895K (Fab, V domains shown)
VH: LESGGGLVKPGGSLRLSCAASGFTFSSYAMHWVRQAPGKGLEWVAFIWFDGSNERYADSVKGRFTITRDNPKNTLYLQMNSLRVEDTAVYYCVRKGGSILTGFHLDYWGQGTLVTVSS
VL: ELTQSPSSLSASVGDRVTITCRASQGIRDDLGWYQQKPGKAPKRLIYAASNLQSGVPSRFSGGGSGTEFTLTISSLQPEDFATYYCLQHNSYPLTFGGGTKVEIKR
As for B7, the binding result in the assay with BSA [9] is “no binding (tested: not given on the sheet)”.

B8: Fab S8 HCDR3 mutant Arg95 to Gly (Fab, V domains shown)
VH: LESGGGLVKPGGSLRLSCAASGFTFSSYAMHWVRQAPGKGLEWVAFIWFDGSNERYADSVKGRFTITRDNPKNTLYLQMNSLRVEDTAVYYCVRGGGSILTGFHLDYWGQGTLVTVSS
VL: ELTQSPSSLSASVGDRVTITCRASQGIRDDLGWYQQKPGKAPKRLIYAASNLQSGVPSRFSGGGSGTEFTLTISSLQPEDFATYYCLQHNSYPLTFGGGTKVEIKR
For the molecule B8, the binding result with BSA [9] is reported as “no binding (tested: not given on the sheet)”.

B9: Fab S8 HCDR3 mutant Arg95 to Asp (Fab, V domains shown)
VH: LESGGGLVKPGGSLRLSCAASGFTFSSYAMHWVRQAPGKGLEWVAFIWFDGSNERYADSVKGRFTITRDNPKNTLYLQMNSLRVEDTAVYYCVRDGGSILTGFHLDYWGQGTLVTVSS
VL: ELTQSPSSLSASVGDRVTITCRASQGIRDDLGWYQQKPGKAPKRLIYAASNLQSGVPSRFSGGGSGTEFTLTISSLQPEDFATYYCLQHNSYPLTFGGGTKVEIKR
In the case of B9, the binding result with BSA [9] is given as “no binding (tested: not given on the sheet)”.
